The experiment addresses G3BP1 (human), Q13283. In words: ITC at 25 °C, peptide titrated into G3BP1.

Sequence of G3BP1 (human), Q13283 (Q13283 1-139 limits assumed): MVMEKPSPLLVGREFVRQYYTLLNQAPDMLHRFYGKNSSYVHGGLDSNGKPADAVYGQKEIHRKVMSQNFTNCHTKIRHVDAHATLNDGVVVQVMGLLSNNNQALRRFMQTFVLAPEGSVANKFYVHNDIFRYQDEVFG

B1: G3BPi WT peptide without CPP (peptide)
peptide: LTFGDFDEHEVDALASGITFGDFDDW
modifications: not checked
The molecule B1 displayed a Kd of 3.6 µM.

For the origin of these results see patent EP4269424A1, “NOVEL ANTIVIRAL COMPOUNDS AND USE THEREOF” (priority 2022, dated 2023).
